Holding throughout (conditions): FMN input: 0 or 200 uM; Eterna round: R93 (includes R88 designs)
For data set [1], the system named is MS2 coat protein. The data set can be described thus: apparent KD of MS2 coat protein, switch OFF state (with FMN for OFF switches, without FMN for ON switches); designed switch direction (-1 OFF switch, 1 ON switch): 1; higher = weaker reporter binding. The method in brief: (§1)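 Binding of SNAP-549-labelled MS2 coat protein was measured on designed RNA switches transcribed on-chip from Illumina sequencing clusters. The protein rose in twofold steps from 0.7 or 1.5 nM to 3 µM, with 0.8–1.5 h per step early on and 10–20 min per step later, in 100 mM Tris-HCl pH 7.5, 80 mM KCl, 4 mM MgCl2, without or with constant ligand. Each design's apparent KD is the median of fits to its normalised cluster binding curves.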

The test system of data set [2] is MS2 coat protein. The data set can be described thus: apparent KD of MS2 coat protein, switch ON state; designed switch direction (-1 OFF switch, 1 ON switch): 1; higher = weaker reporter binding. The procedure, abridged: as §1
Data set [3] has as its system MS2 coat protein. The data set can be described thus: apparent KD of MS2 coat protein, switch OFF state (with FMN for OFF switches, without FMN for ON switches); designed switch direction (-1 OFF switch, 1 ON switch): -1; higher = weaker reporter binding. The procedure, abridged:
as §1

The subject of data set [4] is MS2 coat protein. The data set is described as follows: apparent KD of MS2 coat protein, switch ON state; designed switch direction (-1 OFF switch, 1 ON switch): -1; higher = weaker reporter binding. The method in brief:
as §1

As for “UAACAACAUGAGGAUCACCCAUGUCAAACAGAUCGAGGAUAUGGGCAGGGUUUUCCCUAACUAGAAGGCGAAGACA [Leinxeerri]”, the “apparent KD of MS2 coat protein” value with MS2 coat protein [1] stood at 0.181 µM; in the data set with MS2 coat protein [2], 0.0711 µM.

In the case of “GGCUGCAAUUAUGAGGAUAUGUUUGGAUGAACAUGAGGAUCACCCAUGUGGCGAUAGCCGUCUAUGCAGAAGGUGUAGUGGCGGC [Ertion]”, the “apparent KD of MS2 coat protein” value in the data set on MS2 coat protein [1] was found to be 0.0591 µM; with MS2 coat protein [2], 0.0259 µM.

For the sequence “CUUAAGUGAGGAUAUCAGUAGUAAAAAAAUAAAAUUACUACUGAGAAGGCACAUGAGGAUCACCCAUGUUCCAA [EX4 341: Super Stable 41]”, the “apparent KD of MS2 coat protein” value was determined as 0.0381 µM with MS2 coat protein [3] and 0.0297 µM in the data set on MS2 coat protein [4].

For “AAAAAACAUGAGGAUCACCCAUGUGAGGAUAUGGAAAAGAAAAGAAAAGAAAGAAGAACCAGAAGGCACAAGAA [Khafre]”, the entries for the “apparent KD of MS2 coat protein” value with MS2 coat protein [3] and in the data set with MS2 coat protein [4] were 0.0379 µM and 0.03 µM, respectively.

On to “AAAAACAGAGGAUAUACAAAAUGAUGACGAAAGUCAUCAAAACAUGAGGAUCACCCAUGUAGAAGGCUGAAAAA [Mod of Meechl]”, for which the “apparent KD of MS2 coat protein” value in the data set with MS2 coat protein [3] was 0.0202 µM; in the data set with MS2 coat protein [4], 0.0242 µM.

Regarding “AAAUUGUGAGGAUAUCUGGAUAGGAAAAAGAAAACCUAUCCAGAGAAGGCACAUGAGGAUCACCCAUGUAAAAA [JL cataway mod 5]”, the “apparent KD of MS2 coat protein” value with MS2 coat protein [3] amounted to 0.0968 µM; in the data set on MS2 coat protein [4], 0.0617 µM.

Turning to “GAAGUACGAGGAUAUACAUAGAUACAGAUACAUGUAGACGUACAUGAGGAUCACCCAUGUAGAAGGCGUACAAG [Mat - Same state - Mayanna Mod - D117]”, the “apparent KD of MS2 coat protein” value is 0.129 µM in the data set on MS2 coat protein [3] and 0.137 µM with MS2 coat protein [4].

For “CAGUACUGAGGAUAUACAUGAGGAUCACCCAUGUAUCCUAGCUAGGAAACUAGCAAAUGUAGAAGGCAGUACUG [Ex3: 818]”, the “apparent KD of MS2 coat protein” value turned out to be 0.503 µM in the data set with MS2 coat protein [3] and 0.0476 µM in the data set on MS2 coat protein [4].

As for “AAAAAAGCAGGAUAUACGUACAUGUCAAAAGACGUGAAGGGACAUGAGGAUCACCCAUGUAGAAGGGUUAAGAA [JL Stem Breaker 17]”, the “apparent KD of MS2 coat protein” value came to 0.0494 µM in the data set with MS2 coat protein [3] and 0.22 µM in the data set on MS2 coat protein [4].

As for “AAAAUACAUGAGGAUCACCCAUGUGAGGAUAUCUUAAAGGGAAUAAAAUAACUCAAAAAGAGAAGGCACAAAAA [Ex 1 May 29]”, the entries for the “apparent KD of MS2 coat protein” value with MS2 coat protein [3] and in the data set with MS2 coat protein [4] were 0.044 µM and 0.0358 µM, respectively.

Regarding “AAAAUACAUGAGGAUCACCCAUGUGAGGAUAUCUUAAAGGGAAUAAAAUAACUCAAAAAGAGAAGGCGCAAAAA [Ex 1 May 30]”, the “apparent KD of MS2 coat protein” value with MS2 coat protein [3] was found to be 0.032 µM; with MS2 coat protein [4], 0.0346 µM.

For the sequence “CAGUGACAUGAGGAUCACCCAUGUUAGGAUAUGCGUGUUAGAAAAAAAAAGUUAAUAAGCAGAAGGAACAGUGG [JR_Exc001_Sub311]”, the “apparent KD of MS2 coat protein” value turned out to be 0.0616 µM in the data set on MS2 coat protein [3] and 0.0408 µM with MS2 coat protein [4].

As for “AGGAAACAUGAGGAUCACCCAUGUGAGGAUAUAUGAAAGAAAAGAAAAGAAAGAAGAAGUAGAAGGCACAAGAA [Djer]”, the results for the “apparent KD of MS2 coat protein” value in the data set on MS2 coat protein [3] and with MS2 coat protein [4] were 0.0232 µM and 0.0272 µM, respectively.

For “UUUACGUGAGGAUAUGCGAAUAGAACGUAAGUCAUACAGACGCAGAAGGCACAUGAGGAUCACCCAUGUGAACC [JR_Exc004_Sub312]”, the “apparent KD of MS2 coat protein” value with MS2 coat protein [3] was determined as 0.0498 µM; with MS2 coat protein [4], 0.02 µM.

For the sequence “AGCUAGUCAGGAUAUACGAACAUGUCAAAAGACGUAAGGGAACAUGAGGAUCACCCAUGUAGAAGGGACUCGCA [Diamond 51]”, the results for the “apparent KD of MS2 coat protein” value in the data set on MS2 coat protein [3] and with MS2 coat protein [4] were 0.0985 µM and 0.0613 µM, respectively.

Regarding “AAAAAGAGAGGAUAUGCAGGAGAAAAAAAAAAAAAAAAAAAACAUGAGGAUCACCCAUGUAGAAGGCUCAAAAA [Ecls2-II]”, the figures for the “apparent KD of MS2 coat protein” value in the data set on MS2 coat protein [3] and in the data set with MS2 coat protein [4] were 0.0157 µM and 0.0284 µM, respectively.

Regarding “CUCUUGUCAGGAUAUGGAAGAAAAGAAAAGAAAGAAAAGAACCAGAAGGGACAUGAGGAUCACCCAUGUAAGAA [EteRNA is fun!]”, the “apparent KD of MS2 coat protein” value with MS2 coat protein [3] was determined as 0.0377 µM; with MS2 coat protein [4], 0.156 µM.

(Values after the supplement of paper PMC9170038.)
